The target in this assay is CK2α with para-azidophenylalanine at Tyr239 coupled with DBCO-Sulfo-Cy5 (Homo sapiens) (UniProt P68400). The assay is described as follows: MST; 0.1526 to 5,000 nM GST cleaved CK2β titrated to 30 nM Cy5-labelled CK2α; 50 mM Tris-HCl (pH 8), 500 mM NaCl, 500 μM CaCl2, 0.05% Tween 20, 0.5% (v/v) DMSO; 25 °C; Monolith NT.115.

In general, Kd refers to a measure of binding affinity in units of concentration. A low value points to higher affinity. Consider “casein kinase II subunit beta (CK2β) NP_001311.3; p.Asp32His, GST cleaved (from UniProt P67870 1-215) (natural protein)”, for which the dissociation constant Kd stood at 15.8 nM. To “casein kinase II subunit beta (CK2β), wild type, GST cleaved (from UniProt P67870 1-215) (natural protein)” belongs 12.9 nM.

Values taken from PMC9092267.
